Target: T1, BRN2 DNA-binding domain (BRN2-DBD) (Homo sapiens, UniProt P20265 264-415)
T1 sequence: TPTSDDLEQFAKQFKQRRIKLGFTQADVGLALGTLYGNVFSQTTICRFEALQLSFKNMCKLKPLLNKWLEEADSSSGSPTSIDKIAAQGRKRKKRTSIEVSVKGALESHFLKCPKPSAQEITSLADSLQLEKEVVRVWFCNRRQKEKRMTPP
Test: X-ray crystallography

B1: MORE DNA (dsDNA)
DNA 1: GTATGCAAATAAG
DNA 2: CTTATTTGCATAC
- binding result: binds

From publication doi:10.1101/2022.05.04.490172
